In US20220073611A1 (LANKENAU INSTITUTE FOR MEDICAL RESEARCH, published 2022):

Key:
[1] = target: T1, NR1 ATD fusion protein on 293T-ATD cells (human); assay: flow cytometry on 293T-ATD cells, co-stained with commercial anti-NR1 mAb
T1 construct: also called HEK293T-ATD; GluN1-ATD fused to the PDGF receptor transmembrane domain
Procedure: Primary antibodies included the BIOORBYT APC-labeled NR1 mAb at 10 μg/mL, an ALEXA FLUOR 488 labeled Myc tag mAb at 2 μg/mL (16-308, Millipore, Billerica, Mass.) three human IgG mAbs (5 μg/mL) isolated from a patient with ANRE (5F5, 2G6, 1D1) and the 6A isotype control mAb¹⁴. As a secondary antibody for the human mAbs, we used a FITC-conjugated F(ab′)2 goat anti-human IgG (109-096-008, Jackson ImmunoResearch, West Grove, Pa.). Cells were assayed with a BD FACSCANTO II (Becton Dickson, Franklin Lakes, N.J.). Data were analyzed using FLOWJO 8.8.7. Software (Tree Star, Ashland, Oreg.).

[2] = target: T2, TEV protease-mobilized soluble ATD (human, UniProt Q05586 19-561, biotinylated (Sulfo-NHS-Biotin) in the titration on plate-bound 5F5); assay: ELISA, ATD captured on the plate by a Myc tag antibody
T2 construct: also called mobilized ATD; plate-adherent ATD
T2 sequence (Q05586 other isoform, or with tags, fused parts or gaps): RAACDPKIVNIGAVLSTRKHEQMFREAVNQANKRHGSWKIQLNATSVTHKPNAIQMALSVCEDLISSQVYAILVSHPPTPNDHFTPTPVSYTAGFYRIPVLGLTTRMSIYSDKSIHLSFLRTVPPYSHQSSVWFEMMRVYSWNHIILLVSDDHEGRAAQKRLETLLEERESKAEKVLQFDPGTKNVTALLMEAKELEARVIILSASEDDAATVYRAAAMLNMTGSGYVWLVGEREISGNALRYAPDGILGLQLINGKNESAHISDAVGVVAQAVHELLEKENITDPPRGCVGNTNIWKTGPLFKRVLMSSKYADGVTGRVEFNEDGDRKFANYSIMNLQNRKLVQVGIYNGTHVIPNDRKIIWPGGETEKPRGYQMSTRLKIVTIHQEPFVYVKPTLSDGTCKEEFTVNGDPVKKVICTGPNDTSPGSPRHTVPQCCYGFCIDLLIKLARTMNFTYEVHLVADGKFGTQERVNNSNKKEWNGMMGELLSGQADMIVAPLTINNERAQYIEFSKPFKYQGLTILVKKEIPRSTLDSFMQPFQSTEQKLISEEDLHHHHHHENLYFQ
Procedure: To test binding of human NR1 antibodies to plate-adherent ATD, we added 5 μg/mL Myc antibody (C3956, Sigma-Aldrich) (100 μl/well) to Black 96-well plates (12-566-24, Thermo Fisher) overnight, washed the plates 3 times with PBST, blocked with 5% inactivated fetal bovine serum and 3% Goat serum (Invitrogen) in PBST for 1 h at 37° C., washed 3 times, added 5 μg/mL ATD, and then incubated for 1 h at 37° C. and washed 3 more times. We added human mAbs, 5F5, 2G6, 1D1, and control isotype 6A at 5 μg/mL (100 μl/well), or 5 μg/mL anti-NR1 mAb (MAB 1586 RUHL, Millipore), in triplicate samples, and incubated for 1 h at 37° C. After three additional PBST washes, secondary antibodies were added, either an anti-human IgG HRP conjugate (9040-05 Southern Biotech, Birmingham, Ala.) or anti-mouse IgG HRP conjugate (1010-05, Southern Biotech), at 1:2000 and incubated for 1 h at 37° C., followed by 3 washes. Super Signal ELISA Femto Substrate was used for detection. Data was collected in the Biotek SYNERGY II Microplate reader and analyzed with Microsoft Excel.

T1 sequence (chain, as listed by the source limits assumed): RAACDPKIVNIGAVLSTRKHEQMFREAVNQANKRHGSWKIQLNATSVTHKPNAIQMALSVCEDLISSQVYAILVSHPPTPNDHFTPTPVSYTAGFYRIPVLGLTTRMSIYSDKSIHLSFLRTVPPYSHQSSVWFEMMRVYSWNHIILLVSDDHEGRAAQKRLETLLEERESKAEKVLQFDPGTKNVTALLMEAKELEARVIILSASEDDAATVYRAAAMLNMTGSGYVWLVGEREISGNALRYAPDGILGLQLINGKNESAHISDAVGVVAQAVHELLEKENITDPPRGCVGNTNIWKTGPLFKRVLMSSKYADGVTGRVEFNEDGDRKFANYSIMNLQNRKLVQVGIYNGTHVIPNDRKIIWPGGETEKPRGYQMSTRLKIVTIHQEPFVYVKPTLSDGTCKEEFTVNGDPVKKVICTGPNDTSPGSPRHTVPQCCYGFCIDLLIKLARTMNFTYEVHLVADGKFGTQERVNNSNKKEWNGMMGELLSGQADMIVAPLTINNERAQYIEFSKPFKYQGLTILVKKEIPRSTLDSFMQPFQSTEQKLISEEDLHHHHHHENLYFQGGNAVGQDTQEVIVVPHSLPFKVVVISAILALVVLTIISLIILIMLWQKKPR

B1: mAb 2G6 (antibody, V domains shown)
VH: QVQLQESGGGVVQPGRSLRLSCAASGFSFNAFAMHWVRQAPGKGLEWVARISHYGSDDYYADSVKGRFTISRDNSQNTLFLQMNSLKAEDTGVYYCWRGFTLVRGVISRNPINRFSGMDVWGQGTTVTVS
VL: SYELMQPPSVSVSPGQTARITCSGDALPKKYAYWYQQKSGQAPILVIYEDNKRPSGIPERFSGSSSGTMATLTISGAQVEDEADYFCYSTDSSGNHGVFGGGTKLTVL
notes: Human IgG lambda mAb from a hybridoma of an ANRE patient; Biotinylated or CypHer5E-labelled in some assays; also called 2C6; 2G6-biotin
[1]
  Percent GluN1 positive 293T-ATD cells bound: 58.8%
  double positive cells: 40.5%
[2]
  binding result: binds

B2: mAb 1D1 (antibody, V domains shown)
VH: LVQLVESGGGVVQSGRSLRLSCAASGFAFHTFTIHWVRQAPGKGLDWVTAIYFDGTKKYYADSVKGRFTVSRDNSKNTVYLQMNGLRGEDTAVYYCARARYSYGLSFDYWGQGTPVTVSS
VL: QSVVTQPPSVSAAPGQKVTISCSASSSYLGSNYVSWYQQLPGTAPKLLIYDNNKRSSGISDRFSGSKSGTSATLDITGLQTGDEADYYCGAWDSSLSVVVFGGGTKLTVL
notes: Human IgG mAb from an ANRE patient; also called 1G1; 1DA
[1]
  Percent GluN1 positive 293T-ATD cells bound: 53.7%
  double positive cells: 37%
[2]
  binding result: binds

B3: mAb 5F5 (antibody, V domains shown)
VH: QVQLVESGGGVVRPGGSLRLSCAASGFTFSTYSLHWVRQAPGKGLEWVGVILYDGSKKYYADSVRGRFTISRDNSKSTLNLDMSSLRPDDTAVYYCARDPIAVAPRPSGMVPQGFDYWGQGTLVTVSS
VL: QSVVTQPPSASGTPGQRVTISCSGSSSNIGRNFVFWYRQLPGTAPKVLIYKNIQRPSGVPDRISGSRSGSSASLAISGLRSEDEADYYCASWDDSLSGVVFGGGTKLTVL
notes: Biotinylated or CypHer5E-labelled in some assays; also called SFS; 5G5
[1]
  Percent GluN1 positive 293T-ATD cells bound: 90.5%
  double positive cells: 62.3%
[2]
  binding result: binds
